Reference: the nanobody polyreactivity screen of Harvey et al. (2022)

Assay: yeast display, Sf9 membrane polyspecificity reagent, FACS + sequencing; frameworks hold sequencing errors
Method in brief: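 Sorting gates, low and high (top ~1%), were placed on anti-HA fluorescence to track expression and on streptavidin fluorescence to track reagent binding. A clone's polyreactivity label is taken from the gate it came out of. The reagent was 10% biotinylated, detergent-solubilized Sf9 membrane, applied for 1 hour at 4 °C to galactose-induced yeast display cells.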

Row | Sequence | polyreactivity (PSR sort gate)
1 | QVQLVESGGGLVQAGGSLRLSCAASGSIFVVYAMGWYRQAPGKERELVAGISDGDNTNYADSVKGRVTISRDNAKNTVYLQMNSLKPEDTAVYYCNADGTSRNLEGFDYWGQGTQVTVSS | low polyreactivity
2 | QVQLVESGGGLVQAGGSLRLSCAASGLIFVSYAMGWYRQAPGKERELVASITYSGGGTYYADSVKGRFTISRDYAKNTVYLQMNSLKPEDNAVYYCNADVCWCYSVYREYCMDYWGQGTQVTVSS | low polyreactivity
3 | QVQLVESAGGLVQAGGRLLLSCAASGRIFAKYAMGWYRQAPGKERELVAAIRSTGGGTYYADSVKGRFTISRDNAKNTVYLQMNSLKPEDTAVYYCDARQTYYKYGYWGQGTQVTVSS | high polyreactivity
4 | QVQLVESGGGLVQAGGSLRLSCAASGIIFFDYAMGWYRQAPGKERELVAAISSGGGNTYYADSVKGRFTISRDNAKNTVYLQMNSLNPEDTAVDYCAAEPYIYGEQGAYDYWGQGTQVTVSS | low polyreactivity
5 | QVQLVESGGGLVQAGGTLRLSCAASGRTIKQNAMGWYRQAPGKERELVATIRNGGNTNYADSVKGRFTISRDNAKNNVYLQMNSLKPEDTAVYYCAAARSPYKYSYWGQGTQVTVSS | high polyreactivity
6 | QVQLVESGGGLVQAGGSLRLSCAASGRIFYPNAMGWYRQAPGKERELVAAITSGGRTYYADSVKGRFTISRDNAKNTVYLQMNSLKPEDTAVYYCNARYSFWRSGPGYQGVDYWGQGTQVTVSS | high polyreactivity
7 | QVQLVESGGGLVQAGGSLRLSCAGSGSTFYFYVMGWYRQAPGKDRELVAAITWSGGRTSYADSVKGRFTISRDNAKNTVYLQMNSLKPEDTAVYYCNTDGYPRLYIYDYWGQGTQVTVSS | low polyreactivity
8 | QVQLEESWGGLVQAGGSLRLICAASGSIFSYYAMGWYRQAPGKERELVAVITSGGSTYYADSVKGRFTISRDNAKNTVYLQMNSLKPEDTAVYYCAVKYPELRTWGYYYWGQGTQVTVSS | high polyreactivity
9 | QVQLLESWGGLVHAGGSLRLSCAASGRIIYRYAMGWSRQAPGNERELVAGISNAGGSTYYADSVKGRFTISRDNAKNTVYLQMNSLKPEDTAVYYCATGPSYRYDKGGGRSRYYYWGQGTQVTVSS | high polyreactivity
10 | QVQLVESGGGLVQAGGSLRLSCAASGFTFSKNTMGWYRQAPGKERELVAVITRGGGTYYADSVKGRFTISRDNAKNTVYLQMNSLKPEDTAVYYCAVKRNTAYRQAYYLDDYWGQGTQVTVSS | high polyreactivity
11 | QVQLVESGGGLVQAGGSLRLSCAASGGTLRGYAMGWYRQAPGKERELVASITYTSGSTYYADSVKGRFTISRDNAKNTVYLQINSLKPEDTAVYYCAAVARTVPSYSYNYWGQGTKVTVSS | high polyreactivity
12 | QDQLVESGGGLVQAGGSLRLSCAASGIIFYDYAMGWYRQAPGKERELVAAITSNGDNTYYADSVKGRFTISRDNAKNTVYLQMNSLKPEDTAGYYCAVDGSFAADFDNYLEEYGYWGQGTQVTVSS | low polyreactivity
13 | QVQLVESGGGLVQAGGSLRLSCAASGSIFGTYAMGWYRQAPGKERELVAAISWSDGSTYYADSVKGRFTISRDNAKNTVYLQMNSLKPEDTAVYYCAKVYRSIGPNVSRYGLSYYYWGQGSQVTVSS | low polyreactivity
14 | QVQLVESGGGLVQAGGSLRLSCAASGRIFYVNTMGWYRPAPGKERELVATITWGGDSTYYADSVKGRFTISRDNAKNTVYLQMNSLKPEDTAVYYCAADHHDIRLNTRRNDYRGQGTQVTVSS | low polyreactivity
15 | QVQLVESGGGLVQAGGSLRLICAASGSTFIINAMGWYRQAPGKERELVARITQRGTSTFYADSVKGRFTISRDNAKNTVYLQMNSLKPDDTAVYYCAGRGSNSLGNKYDYWGQGTQVTVSS | high polyreactivity
16 | QVQLVESGGGLVQAGGSLRLSCAASGYIFRYYAMGWYREAPGKERELVARINSGGSTYADSVKGRFTISRDNAKNTVYLQMNSLKPEDTAVYYCAADLAKYRSKLGYWGQVTQVTVSS | high polyreactivity
17 | QVQLVESGGGLVQAGGSLRLSCAASGRIFPNAMGWYRQAPGKERELVAAISWSGVTTTYADSVKGRFTISRDNAKNTVYLQMNSLKPEDTAVYYCAARYWAYGYWGQGTQVTVSS | high polyreactivity
18 | QVQLVESGGGLEQAGGSLRISCAASVSTVRFNAMGWYIQEPGKERQLVAVIRWRGGTTYYADSVKGRFTISRDNAKNTVYLQMNSLKPEDPAVYYCNADYWFSYTWHGSYTVGYWGQGTQVTVSS | high polyreactivity
19 | QVQLVESGGGLVQAGGSLRLSCAATGRIFTTYAMGWYRQAPGKERELVAAITSGGGTYYADSVKGRFTISRDNAKNTVYLQMNSLKPEDTAVYYCNADYSADYYWYYYCGQGTQVTVSS | low polyreactivity
20 | QVQLVETWGGLVQAGGSLRLSCAASGRNFRTNAMGWYRQAPGKERELVAAITSDGTYYADSVKGRFTISRDNAKNNVYLQMNSVKPEDTAVYYCNVDDRETRDDYWGQGTQVTVSS | low polyreactivity
21 | QVQLVESGGVLVQAGRSLRLSCAASGSPFRIYAMGWYRQAPGKERELVAAISSGGRTNYADSVKGRFTISRDNAKNTVYLQMNSLKPEDTAVYYCATVGYSSSTSGNRYGRAYYYWGQGTQVTVSS | high polyreactivity
22 | QVQLVESGGGLVQAGGSLRLSCAASGRIFGINARGWYRPAPGKERELVAAINWSGGSTYYADSVKGRFTISRDNAKNTVYLHMNSLKPEDTAVYYCAADFYRRYYRYGYWGQGTQVTVSS | high polyreactivity

Row | Sequence | polyreactivity (PSR sort gate)
23 | QDQLGESGGGIVQAGGSLRLSCASSGINFLDKAMGWYRPAQGKETELVAAYADSVKGRFTISRDNAKNTVYLQMNSLSAEDTAVYYCNAGWIRYYGFSIVSYDYWGQGTQVTVSS | low polyreactivity
24 | QVQLEESGRGLVQAGGSLRLSCAASGSTLSTYSMGWYRQAPGKERELVAAITWSDDSTYYADSVKGRFTISRDNAKNTFYLQMNSLKPEDTAVYYCAAEYISWYFGYDYWGQGTQVTVSS | high polyreactivity
25 | QDQLVESGGGLVQAGGSLRLSCAASGSIFWGYDMGWYRQAPGKEMELVARISYSGGSTSYADSVKGRFTISRDNAKNTVYLQMNSLKPEDTAVYYCAADEGGFWWTYPYDSWGQGTQVTVSS | low polyreactivity
26 | QVQLVESGGGLVQAGGSLRLSCAASGIIFAQYTMGWYRQAPGKERELVAAINRNGGSTYYADSVKGRFTISRDNAKNSVYLQMNSLKPEDTAVYYCNADALGFRYDYWGQGTQVTVSS | low polyreactivity
27 | QVQLVESGGGLVQAGGSLRLSCAASGRIFAAYAMGWYRQAPGKEREFVAAIRLSGGSTYYADSVKGRFTISRDNAKNTVYLQMNSLKPEDTAVYYCAARYPGVARFYYWGQGTQLTVSS | high polyreactivity
28 | QVQLVESGGGLLQAGGSLRLSCAASGIIFSDYAMGRYRQAPRKERELVAAITSSGGSTYYADSVKGRFTISRDNAKNTVYLQMNSLKPEDPAVYYCAAQCYDYWYDYDYWGQGTQVTVSS | high polyreactivity
29 | QVQLGESGGGLVQAGGSLRLSCAASGFTFYNYAMGWYRQAPGKERELVAAISTSGGSTYYADSVKGRFTISRDNAKNTVYLQMNSLKPEDTAVYYCAAQATAYSYAYYYWGQGTQVTVSS | low polyreactivity
30 | QVQLVESGGGLVQAGGSLRLSCAASGRISKGYAMGWYRQAPGKERELVAAISWRTSSTYYADSVKGRFTISRDNAKNTVYLQMNSLKPEVTAVYYCAAETWLGSWRQVGMDYWGQGTQVTVSS | high polyreactivity
31 | QVQLVESGGGLVQAGGSLRLSCAASGSTFGVSAMGWSRQAPGKERELVAAISGRGGRTYYADSVKGRFTISRDNAKNTVYLLMNSLKPEDTAVYYFAVVGSAYQSRYDYWGQGTQVTVSS | high polyreactivity
32 | QVQLVESGGGLVQAGGSLRLSCAASGSIFVDNAMGWYRQAPGKERELVAAINWSGGSTYYADSVKGRFTISRDNAKNTVYLQMNSLKQEDTAVYYCNAARPVQTWDEQSWYDYWGQGTQVTVSS | low polyreactivity
33 | QVQLVESGGRLVQAGGSLRLSCAASGLIFVHYAMGWYRQSPGKERELVAAISAGGGSTYYADSVKGRFTISRDNAKNTVYLQMNSLKPEDTAVYYCNARVVNYVRPRTGAREYDFWGQGTQVTVSS | high polyreactivity
34 | QVQLVESGGGLVQAGGSLRLSCAASGSIFVVYAMGWYRQAPGKERELVAAISWGIGSTYYADSVKGRFTISRDNAKYTVYLQMNSLKPEDTAVYYCAAETDIVLYDYWGQGTQVTVSS | low polyreactivity
35 | QVQLVESGGGLVQAGGSLRLSCAASGRIFGHYAMGWYRQAPGKETELVASISWRGGRTYYADSVKGRFTISRDNAKNTVYLQMNSLKPEDTAVYYCAARVNYKPYADYYYWGQGTQVTVSS | high polyreactivity
36 | QVQLVESGGGIVQAGGSLRLSSAASGGIFPYYVMGRYRQAPGKERELVAAINSGGTTYYADSVKGRFTISRDNAKNTVYLQMNSLKPEDTAVYYCAAEAYKHGVWDYDYWGQGTQVTVSS | low polyreactivity
37 | QVQLVESGGGLVQAGGSLRLSCAASGSTFRYYTMGWYRQAPGKERELVASISRSGSTSYADSVKGRFTISRDNAKNTVYLLMNSLKPEDTAVYYCARESFFGAYAGYDYWGQGTQVTVSS | low polyreactivity
38 | QVQLVESGGGLVQAGGSHRLSSAASGSIIPSYAMGWYRQAPGKERELVAAITTSGGNTFYADSVKGRFTISRDNAKNTVYLQMNSLKPEDTAVYYCAADYSPYTVEYDYWGQGTQVTVSS | low polyreactivity
39 | QVQLVESGGGLVQAGGSLRLTCAASGRTFRIYAMGWYRQAPAKERELVAAIRWSGGTTYYADSVKGRFTISRDNTNNSVYLQMNSLKPEDTAVYYCNKARLGWSYRQDDYWGQGTQVTVSS | high polyreactivity
40 | QVQLVESGGGLVQAGGSLRLSCAASGSIFRYYAMGWYRQAPGKERELVAAITSGGRTNYADSVKGRFTISRDNAKNTVYLQMNSLKPEDSAVYYCNKGYNAVWRYRGDYWGQGTQVTVSS | high polyreactivity
41 | QVQLVESVGGLVQAGGSLRLSCAASGFIFSYYAMGRYRQAPGKERELVATINFSGGRTYYADSVKGRFTISRDNAKNTVYLQMNSLKPEDTAVYYCAAVARSRAAPGVGYWGQGTQVTVSS | high polyreactivity
42 | QVQLVESGGGLVQAGGSLRLSCAASGRIFTYYAMGWYRQAPGKERELVAAITSGGGSTSYADSVKGRFTISRDNAKNTVYLQMNSLKPEDTAVYYCATRRPFYGHNTYYWYNYWGQGTQVTVSS | high polyreactivity
43 | QVQLLESGGGLVQAGGSLRLSCAASGFIFKGNAMGWYRQAPGKERELVAAITNRGGGTYYADSVKGRFTISRDNAKNTVYLLMNSLKPEDTAVYYCAKAYTLPFHPYDYWGQGTQVTVSS | high polyreactivity
